Measurements from patent US20140271603.

Legend:
[1] = molecular target: T1, recombinant human factor H, Y402 variant, produced in the PER.C6 cell line
T1 chain: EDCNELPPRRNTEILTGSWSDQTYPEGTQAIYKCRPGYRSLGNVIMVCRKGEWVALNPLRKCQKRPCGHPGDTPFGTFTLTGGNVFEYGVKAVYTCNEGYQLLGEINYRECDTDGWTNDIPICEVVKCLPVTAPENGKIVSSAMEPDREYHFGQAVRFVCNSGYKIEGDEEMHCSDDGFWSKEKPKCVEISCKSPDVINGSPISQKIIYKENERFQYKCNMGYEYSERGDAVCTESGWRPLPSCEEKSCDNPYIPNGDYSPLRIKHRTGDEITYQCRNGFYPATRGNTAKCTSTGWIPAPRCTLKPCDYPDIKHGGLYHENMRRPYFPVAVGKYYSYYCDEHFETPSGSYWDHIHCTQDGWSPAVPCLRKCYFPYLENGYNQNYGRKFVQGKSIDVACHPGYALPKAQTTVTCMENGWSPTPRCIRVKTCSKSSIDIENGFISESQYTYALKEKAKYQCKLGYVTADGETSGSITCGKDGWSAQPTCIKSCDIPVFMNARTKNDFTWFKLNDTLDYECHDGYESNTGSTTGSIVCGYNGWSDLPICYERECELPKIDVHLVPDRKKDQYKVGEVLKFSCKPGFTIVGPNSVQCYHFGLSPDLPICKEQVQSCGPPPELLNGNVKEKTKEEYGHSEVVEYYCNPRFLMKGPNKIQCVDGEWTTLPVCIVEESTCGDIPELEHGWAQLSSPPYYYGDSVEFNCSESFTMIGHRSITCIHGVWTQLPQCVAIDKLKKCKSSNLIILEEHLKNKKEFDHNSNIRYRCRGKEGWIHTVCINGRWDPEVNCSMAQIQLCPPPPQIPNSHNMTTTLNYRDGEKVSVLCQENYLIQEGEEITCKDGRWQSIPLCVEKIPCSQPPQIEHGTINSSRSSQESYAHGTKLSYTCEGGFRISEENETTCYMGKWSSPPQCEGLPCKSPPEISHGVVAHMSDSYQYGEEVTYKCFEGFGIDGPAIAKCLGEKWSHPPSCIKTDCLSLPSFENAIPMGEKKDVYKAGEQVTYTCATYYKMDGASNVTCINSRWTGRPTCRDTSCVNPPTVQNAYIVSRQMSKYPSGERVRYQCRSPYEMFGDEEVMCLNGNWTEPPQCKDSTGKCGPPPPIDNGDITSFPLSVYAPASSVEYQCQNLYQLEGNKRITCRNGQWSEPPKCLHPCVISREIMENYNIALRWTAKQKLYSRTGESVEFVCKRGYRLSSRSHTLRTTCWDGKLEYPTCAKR

[2] = molecular target: purified human plasma factor H (batch LFB), P08603
[3] = molecular target: T2, recombinant human factor H, Y402 variant, produced in the HEK 293F cell line
T2 chain: T1 chain

B1: Factor I (protein)
chain: KVTYTSQEDLVEKKCLAKKYTHLSCDKVFCQPWQRCIEGTCVCKLPYQCPKNGTAVCATNRRSFPTYCQQKSLECLHPGTKFLNNGTCTAEGKFSVSLKHGNTDSEGIVEVKLVDQDKTMFICKSSWSMREANVACLDLGFQQGADTQRRFKLSDLSINSTECLHVHCRGLETSLAECTFTKRRTMGYQDFADVVCYTQKADSPMDDFFQCVNGKYISQMKACDGINDCGDQSDELCCKACQGKGFHCKSGVCIPSQYQCNGEVDCITGEDEVGCAGFASVTQEETEILTADMDAERRRIKSLLPKLSCGVKNRMHIRRKRIVGGKRAQLGDLPWQVAIKDASGITCGGIYIGGCWILTAAHCLRASKTHRYQIWTTVVDWIHPDLKRIVIEYVDRIIFHENYNAGTYQNDIALIEMKKDGNKKDCELPRSIPACVPWSPYLFQPNDTCIVSGWGREKDNERVFSLQWGEVKLISNCSKFYGNRFYEKEMECAGTYDGSIDACKGDSGGPLVCMDANNVTYVWGVVSWGENCGKPEFPGVYTKVANYFDWISYHVGRPFISQYNV
cofactor activity of Factor I (liquid-phase cleavage of the C3b α′ chain, SDS-PAGE) [1]: the recombinant FHs produced by the PER.C6 and HEK 293F lines have a similar cofactor activity of FI and that this activity is comparable to that of the human plasma FH
cofactor activity of Factor I (liquid-phase cleavage of the C3b α′ chain, SDS-PAGE) [2]: this activity is comparable to that of the human plasma FH
cofactor activity of Factor I (liquid-phase cleavage of the C3b α′ chain, SDS-PAGE) [3]: the recombinant FHs produced by the PER.C6 and HEK 293F lines have a similar cofactor activity of FI and that this activity is comparable to that of the human plasma FH
